Measured values: patent US6342348

What was measured:
[1] = target: rat NTNRα-IgG fusion protein (soluble rNTNRα) (rat); assay: binding experiments with biotinylated ligand (format not described); 'and vice versa'
[2] = target: T1, recombinant soluble rat GDNFRα (rat) (UniProt Q62997); assay: displacement of labelled rGDNF from soluble GDNFRα by unlabeled NTN (10 nm)
T1 sequence (looked up): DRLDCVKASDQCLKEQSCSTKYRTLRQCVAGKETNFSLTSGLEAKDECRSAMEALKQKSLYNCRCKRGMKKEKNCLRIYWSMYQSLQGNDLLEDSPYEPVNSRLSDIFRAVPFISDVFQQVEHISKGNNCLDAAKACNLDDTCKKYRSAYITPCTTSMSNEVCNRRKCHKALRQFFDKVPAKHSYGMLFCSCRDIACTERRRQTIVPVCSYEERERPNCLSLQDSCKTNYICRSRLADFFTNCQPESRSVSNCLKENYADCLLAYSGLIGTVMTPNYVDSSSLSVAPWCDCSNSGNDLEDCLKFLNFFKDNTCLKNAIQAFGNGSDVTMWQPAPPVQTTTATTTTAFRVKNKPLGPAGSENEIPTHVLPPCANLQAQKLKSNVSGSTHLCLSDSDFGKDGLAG

[3] = target: T2, rat NTNRα, endogenous, on embryonic rat spinal motoneurons (rat); assay: cell-based or functional assay
T2 sequence (chain, GPI-linked): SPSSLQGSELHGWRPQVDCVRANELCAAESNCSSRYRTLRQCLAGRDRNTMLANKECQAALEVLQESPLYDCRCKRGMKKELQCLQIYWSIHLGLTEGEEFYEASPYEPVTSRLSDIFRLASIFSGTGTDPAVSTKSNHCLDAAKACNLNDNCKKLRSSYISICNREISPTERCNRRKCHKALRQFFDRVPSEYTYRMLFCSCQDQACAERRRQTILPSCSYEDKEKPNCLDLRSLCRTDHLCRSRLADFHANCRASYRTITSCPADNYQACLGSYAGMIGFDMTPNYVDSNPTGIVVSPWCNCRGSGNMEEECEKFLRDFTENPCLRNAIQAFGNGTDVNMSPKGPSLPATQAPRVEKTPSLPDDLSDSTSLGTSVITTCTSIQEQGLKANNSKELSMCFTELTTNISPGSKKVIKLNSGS

[4] = target: T1, recombinant soluble rat GDNFRα (rat); assay: binding experiments with biotinylated ligand (format not described)

B1: GDNF, species not stated (ligand, UniProt P39905 78-211, looked up, species assumed)
Glial cell line-derived neurotrophic factor: SPDKQMAVLPRRERNRQAAAANPENSRGKGRRGQRGKNRGCVLTAIHLNVTDLGLGYETKEELIFRYCSGSCDAAETTYDKILKNLSRNRRLVSDKVGQACCRPIAFDDDLSFLDDNLVYHILRKHSAKRCGCI
B1 was tested, and the Kd [1] was over 1 mM.

B2: Neurturin (NTN), species not stated (ligand, UniProt Q99748 96-197, looked up, species assumed)
Neurturin: ARLGARPCGLRELEVRVSELGLGYASDETVLFRYCAGACEAAARVYDLGLRRLRQRRRLRRERVRAQPCCRPTAYEDEVSFLDAHSRYHTVHELSARECACV
Binder B2 has a Kd [2] of over 1 nM, a decrease in survival response of embryonic rat spinal motoneurons to NTN after PIPLC treatment [3] of 50 to 90% and a Kd [4] of over 1 mM.
